{"source": "paper PMC6555819", "about": "“Comprehensive study of nuclear receptor DNA binding provides a revised framework for understanding receptor specificity”", "key": {"[1]": {"target": "RXRa (Homo sapiens, UniProt P19793)", "sequence (P19793 whole entry)": "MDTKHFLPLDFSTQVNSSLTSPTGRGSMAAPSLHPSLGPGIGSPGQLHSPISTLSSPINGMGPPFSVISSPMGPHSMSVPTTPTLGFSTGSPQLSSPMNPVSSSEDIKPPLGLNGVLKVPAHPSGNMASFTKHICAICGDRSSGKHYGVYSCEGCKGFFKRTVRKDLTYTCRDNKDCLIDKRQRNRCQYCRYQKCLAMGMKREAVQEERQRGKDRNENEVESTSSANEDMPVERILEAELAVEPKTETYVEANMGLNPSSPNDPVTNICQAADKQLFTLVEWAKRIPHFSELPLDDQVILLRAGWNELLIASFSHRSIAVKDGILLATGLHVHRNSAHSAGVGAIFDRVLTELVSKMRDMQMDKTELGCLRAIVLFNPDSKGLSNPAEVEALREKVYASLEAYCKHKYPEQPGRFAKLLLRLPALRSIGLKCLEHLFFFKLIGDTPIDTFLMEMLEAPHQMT", "assay": "no ligand; PBM; 180 nM; PBS pH 7.4, 2% milk, 0.02% Triton X-100, 1 mM DTT, BSA, 0.4 mg/ml salmon testes DNA", "settings": "tags: His cleaved; chain copies: 2; label: surface-attached array probe"}, "[2]": {"target": "LXRb:RXRa (Homo sapiens, UniProt P55055;P19793 full;full)", "sequence (P55055 whole entry, chain 1 of 2)": "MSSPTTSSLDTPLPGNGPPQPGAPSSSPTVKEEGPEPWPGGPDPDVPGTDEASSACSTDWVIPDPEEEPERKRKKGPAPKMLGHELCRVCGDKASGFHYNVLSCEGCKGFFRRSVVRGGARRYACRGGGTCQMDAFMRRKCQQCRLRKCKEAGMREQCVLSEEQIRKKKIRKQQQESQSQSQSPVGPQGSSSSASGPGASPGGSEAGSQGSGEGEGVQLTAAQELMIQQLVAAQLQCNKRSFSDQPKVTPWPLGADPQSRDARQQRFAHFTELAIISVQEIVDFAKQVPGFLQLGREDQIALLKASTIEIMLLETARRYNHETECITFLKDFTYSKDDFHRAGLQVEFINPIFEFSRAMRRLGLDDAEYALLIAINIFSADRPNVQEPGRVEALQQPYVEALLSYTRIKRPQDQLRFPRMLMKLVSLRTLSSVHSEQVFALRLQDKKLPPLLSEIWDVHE", "sequence (P19793 whole entry, chain 2 of 2)": "as the sequence (P19793 whole entry) above", "assay": "no ligand; PBM; 270 nM : 90 nM RXRa; PBS pH 7.4, 2% milk, 0.02% Triton X-100, 1 mM DTT, BSA, 0.4 mg/ml salmon testes DNA", "settings": "tags: His kept;His cleaved; copies: 1;1; label: surface-attached array probe", "how_it_was_run": "(§1)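 Binding buffer was PBS pH 7.4 with 2% milk, 0.02% Triton X-100, 1 mM DTT, 0.2 mg/mL BSA and 0.4 mg/ml salmon testes DNA. In it, ligand-free nuclear receptor dimers were incubated 1 h on custom Agilent 4×180K protein-binding microarrays carrying double-stranded probes. Antibodies against each partner (one per run) detected binding, and z-scores were calculated against random background probes after regression normalization of scanned fluorescence.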"}, "[3]": {"target": "RARg:RXRa (Homo sapiens, UniProt P13631;P19793 full;full)", "sequence (P13631 whole entry, chain 1 of 2)": "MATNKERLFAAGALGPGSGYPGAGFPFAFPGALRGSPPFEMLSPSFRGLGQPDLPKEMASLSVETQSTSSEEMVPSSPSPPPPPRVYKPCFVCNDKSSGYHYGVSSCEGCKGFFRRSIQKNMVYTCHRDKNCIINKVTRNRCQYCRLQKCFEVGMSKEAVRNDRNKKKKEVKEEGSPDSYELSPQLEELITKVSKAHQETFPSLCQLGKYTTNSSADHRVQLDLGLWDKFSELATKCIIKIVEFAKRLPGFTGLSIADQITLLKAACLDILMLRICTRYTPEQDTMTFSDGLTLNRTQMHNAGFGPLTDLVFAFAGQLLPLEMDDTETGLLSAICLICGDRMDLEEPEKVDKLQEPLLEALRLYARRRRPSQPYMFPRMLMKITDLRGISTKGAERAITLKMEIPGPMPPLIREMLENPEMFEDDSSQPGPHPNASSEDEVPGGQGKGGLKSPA", "sequence (P19793 whole entry, chain 2 of 2)": "as the sequence (P19793 whole entry) above", "assay": "no ligand; PBM; 270 nM : 90 nM RXRa; PBS pH 7.4, 2% milk, 0.02% Triton X-100, 1 mM DTT, BSA, 0.4 mg/ml salmon testes DNA", "settings": "tags: His kept;His cleaved; copies: 1;1; label: surface-attached array probe", "how_it_was_run": "as §1"}, "[4]": {"target": "VDR:RXRa (Homo sapiens, UniProt P11473;P19793 full;full)", "sequence (P11473 whole entry, chain 1 of 2)": "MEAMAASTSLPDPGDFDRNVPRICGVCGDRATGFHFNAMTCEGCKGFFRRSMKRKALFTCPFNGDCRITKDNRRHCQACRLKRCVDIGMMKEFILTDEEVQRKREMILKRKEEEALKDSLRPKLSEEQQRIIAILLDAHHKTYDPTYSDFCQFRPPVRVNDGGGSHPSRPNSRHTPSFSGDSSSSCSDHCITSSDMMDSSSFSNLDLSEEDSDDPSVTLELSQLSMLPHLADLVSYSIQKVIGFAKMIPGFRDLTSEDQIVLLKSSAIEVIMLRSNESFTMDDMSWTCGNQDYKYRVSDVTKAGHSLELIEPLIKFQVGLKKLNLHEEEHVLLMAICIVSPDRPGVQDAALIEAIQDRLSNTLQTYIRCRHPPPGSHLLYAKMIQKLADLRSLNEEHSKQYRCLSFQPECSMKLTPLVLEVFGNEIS", "sequence (P19793 whole entry, chain 2 of 2)": "as the sequence (P19793 whole entry) above", "assay": "no ligand; PBM; 270 nM : 90 nM RXRa; PBS pH 7.4, 2% milk, 0.02% Triton X-100, 1 mM DTT, BSA, 0.4 mg/ml salmon testes DNA", "settings": "tags: His kept;His cleaved; copies: 1;1; label: surface-attached array probe", "how_it_was_run": "as §1"}, "[5]": {"target": "PPARa:RXRa (Homo sapiens, UniProt Q07869;P19793 full;full)", "sequence (Q07869 whole entry, chain 1 of 2)": "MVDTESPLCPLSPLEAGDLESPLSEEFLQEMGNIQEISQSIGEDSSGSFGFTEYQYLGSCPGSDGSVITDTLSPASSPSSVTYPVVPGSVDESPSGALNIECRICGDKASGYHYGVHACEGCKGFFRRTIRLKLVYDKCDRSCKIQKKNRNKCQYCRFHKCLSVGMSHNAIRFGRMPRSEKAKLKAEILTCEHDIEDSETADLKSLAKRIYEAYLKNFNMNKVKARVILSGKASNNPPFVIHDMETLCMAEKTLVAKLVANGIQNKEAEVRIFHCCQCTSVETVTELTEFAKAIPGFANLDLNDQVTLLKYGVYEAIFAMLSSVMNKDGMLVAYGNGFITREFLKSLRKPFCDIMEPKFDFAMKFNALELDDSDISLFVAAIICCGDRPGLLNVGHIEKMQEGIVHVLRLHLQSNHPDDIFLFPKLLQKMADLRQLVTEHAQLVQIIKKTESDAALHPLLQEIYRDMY", "sequence (P19793 whole entry, chain 2 of 2)": "as the sequence (P19793 whole entry) above", "assay": "no ligand; PBM; 270 nM : 90 nM RXRa; PBS pH 7.4, 2% milk, 0.02% Triton X-100, 1 mM DTT, BSA, 0.4 mg/ml salmon testes DNA", "settings": "tags: GST kept;His cleaved; copies: 1;1; label: surface-attached array probe", "how_it_was_run": "as §1"}, "[6]": {"target": "RARb:RXRa (Homo sapiens, UniProt P10826;P19793 full;full)", "sequence (P10826 whole entry, chain 1 of 2)": "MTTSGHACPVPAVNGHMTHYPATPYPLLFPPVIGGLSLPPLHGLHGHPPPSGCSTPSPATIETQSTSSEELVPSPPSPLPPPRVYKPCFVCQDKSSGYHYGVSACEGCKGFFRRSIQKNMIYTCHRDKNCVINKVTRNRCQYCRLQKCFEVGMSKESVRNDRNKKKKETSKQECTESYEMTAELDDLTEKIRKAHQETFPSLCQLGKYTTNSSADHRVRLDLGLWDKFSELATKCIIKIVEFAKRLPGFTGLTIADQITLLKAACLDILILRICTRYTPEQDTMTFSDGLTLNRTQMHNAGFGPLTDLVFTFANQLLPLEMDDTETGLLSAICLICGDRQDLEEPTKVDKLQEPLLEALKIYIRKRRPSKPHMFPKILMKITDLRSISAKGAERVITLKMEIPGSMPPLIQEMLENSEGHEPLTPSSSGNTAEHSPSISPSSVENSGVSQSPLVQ", "sequence (P19793 whole entry, chain 2 of 2)": "as the sequence (P19793 whole entry) above", "assay": "no ligand; PBM; 270 nM : 90 nM RXRa; PBS pH 7.4, 2% milk, 0.02% Triton X-100, 1 mM DTT, BSA, 0.4 mg/ml salmon testes DNA", "settings": "tags: His kept;His cleaved; copies: 1;1; label: surface-attached array probe", "how_it_was_run": "as §1"}, "[7]": {"target": "FXR:RXRa (Homo sapiens, UniProt Q96RI1;P19793 full;full)", "sequence (Q96RI1 whole entry, chain 1 of 2)": "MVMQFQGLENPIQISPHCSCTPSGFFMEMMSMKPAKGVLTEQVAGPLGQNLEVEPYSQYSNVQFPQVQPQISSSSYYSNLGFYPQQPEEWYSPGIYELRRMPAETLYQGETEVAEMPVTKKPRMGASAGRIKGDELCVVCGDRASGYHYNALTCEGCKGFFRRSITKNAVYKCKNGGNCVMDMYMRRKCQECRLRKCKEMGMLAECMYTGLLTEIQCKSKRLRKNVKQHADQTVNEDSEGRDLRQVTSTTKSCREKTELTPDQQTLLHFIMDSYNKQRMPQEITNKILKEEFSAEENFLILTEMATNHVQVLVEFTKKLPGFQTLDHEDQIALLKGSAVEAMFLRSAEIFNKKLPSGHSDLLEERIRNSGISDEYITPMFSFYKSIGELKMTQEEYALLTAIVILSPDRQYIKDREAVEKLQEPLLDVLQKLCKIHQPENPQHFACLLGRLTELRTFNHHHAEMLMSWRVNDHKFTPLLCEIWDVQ", "sequence (P19793 whole entry, chain 2 of 2)": "as the sequence (P19793 whole entry) above", "assay": "no ligand; PBM; 270 nM : 90 nM RXRa; PBS pH 7.4, 2% milk, 0.02% Triton X-100, 1 mM DTT, BSA, 0.4 mg/ml salmon testes DNA", "settings": "tags: His kept;His cleaved; copies: 1;1; label: surface-attached array probe", "how_it_was_run": "as §1"}}, "data": [{"binder": "NRC3_wobSeed45_DR1_A14T_o1 (dsDNA) DNA 1: GCTGTCAAAGTTCTAAGGTAACGTAAGTATCCACACGCGATTGACAGCGTAGAATGAAGG DNA 2: CCTTCATTCTACGCTGTCAATCGCGTGTGGATACTTACGTTACCTTAGAACTTTGACAGC", "values": [{"measurement": "binding signal", "setting": "[1]", "result": "0.38 PBM z-score against 500 random probes"}, {"measurement": "binding signal", "setting": "[2]", "result": "0.4 PBM z-score against 500 random probes"}, {"measurement": "binding signal", "setting": "[3]", "result": "0.41 PBM z-score against 500 random probes"}]}, {"binder": "NRC3_wobSeed21_DR0_C21T_o1 (dsDNA) DNA 1: GCCGTCAAAGTTCAAGGTAATGTAACAGAAAGCAGCGCGATTGACAGCGTAGAATGAAGG DNA 2: CCTTCATTCTACGCTGTCAATCGCGCTGCTTTCTGTTACATTACCTTGAACTTTGACGGC", "values": [{"measurement": "binding signal", "setting": "[2]", "result": "3.22 PBM z-score against 500 random probes"}, {"measurement": "binding signal", "setting": "[4]", "result": "3.72 PBM z-score against 500 random probes"}]}, {"binder": "NRC3_random_hg19_201_o1 (dsDNA) DNA 1: GCCAAGGCTACCAAAGCAGTTTCTGGGCATGCTGAGGCGATTGACAGCGTAGAATGAAGG DNA 2: CCTTCATTCTACGCTGTCAATCGCCTCAGCATGCCCAGAAACTGCTTTGGTAGCCTTGGC", "values": [{"measurement": "binding signal", "setting": "[2]", "result": "-0.95 PBM z-score against 500 random probes"}, {"measurement": "binding signal", "setting": "[5]", "result": "-0.55 PBM z-score against 500 random probes"}]}, {"binder": "NRC3_wobSeed37_DR1_T23C_o1 (dsDNA) DNA 1: GCCGTCCAAGGTCAAAGGTCAGCGAAGAGATGACGGGCGATTGACAGCGTAGAATGAAGG DNA 2: CCTTCATTCTACGCTGTCAATCGCCCGTCATCTCTTCGCTGACCTTTGACCTTGGACGGC", "values": [{"measurement": "binding signal", "setting": "[2]", "result": "7.14 PBM z-score against 500 random probes"}, {"measurement": "binding signal", "setting": "[6]", "result": "6.23 PBM z-score against 500 random probes"}]}, {"binder": "NRC3_random_hg19_110_o1 (dsDNA) DNA 1: GCTGCTGATTCATAGCTTGTAACTTCGTGTTCTTTAGCGATTGACAGCGTAGAATGAAGG DNA 2: CCTTCATTCTACGCTGTCAATCGCTAAAGAACACGAAGTTACAAGCTATGAATCAGCAGC", "values": [{"measurement": "binding signal", "setting": "[2]", "result": "-0.27 PBM z-score against 500 random probes"}, {"measurement": "binding signal", "setting": "[3]", "result": "-0.76 PBM z-score against 500 random probes"}]}, {"binder": "NRC3_random_hg19_348_o1 (dsDNA) DNA 1: GCGGAGCAGTCTGCTTTCACGCAGCCTGCTGGGCACGCGATTGACAGCGTAGAATGAAGG DNA 2: CCTTCATTCTACGCTGTCAATCGCGTGCCCAGCAGGCTGCGTGAAAGCAGACTGCTCCGC", "values": [{"measurement": "binding signal", "setting": "[2]", "result": "-1.82 PBM z-score against 500 random probes"}, {"measurement": "binding signal", "setting": "[6]", "result": "-2.02 PBM z-score against 500 random probes"}]}, {"binder": "NRC3_wobSeed10_DR0_G17T_o1 (dsDNA) DNA 1: GCATCGAAAGGTCGAGTTGAGTATAGAGAAAGGGAAGCGATTGACAGCGTAGAATGAAGG DNA 2: CCTTCATTCTACGCTGTCAATCGCTTCCCTTTCTCTATACTCAACTCGACCTTTCGATGC", "values": [{"measurement": "binding signal", "setting": "[1]", "result": "4.1 PBM z-score against 500 random probes"}, {"measurement": "binding signal", "setting": "[2]", "result": "3.11 PBM z-score against 500 random probes"}]}, {"binder": "NRC3_random_hg19_165_o1 (dsDNA) DNA 1: GCTGAGTCCCTGCACTAGTCGGTTTGAGCTGCTTGTGCGATTGACAGCGTAGAATGAAGG DNA 2: CCTTCATTCTACGCTGTCAATCGCACAAGCAGCTCAAACCGACTAGTGCAGGGACTCAGC", "values": [{"measurement": "binding signal", "setting": "[1]", "result": "-1.2 PBM z-score against 500 random probes"}, {"measurement": "binding signal", "setting": "[2]", "result": "-0.66 PBM z-score against 500 random probes"}]}, {"binder": "NRC3_random_hg19_352_o1 (dsDNA) DNA 1: GCGAGATGCAGCCAACCTGTAGAGATCCTGTGGAGAGCGATTGACAGCGTAGAATGAAGG DNA 2: CCTTCATTCTACGCTGTCAATCGCTCTCCACAGGATCTCTACAGGTTGGCTGCATCTCGC", "values": [{"measurement": "binding signal", "setting": "[7]", "result": "-0.39 PBM z-score against 500 random probes"}, {"measurement": "binding signal", "setting": "[2]", "result": "-0.67 PBM z-score against 500 random probes"}, {"measurement": "binding signal", "setting": "[3]", "result": "-0.52 PBM z-score against 500 random probes"}, {"measurement": "binding signal", "setting": "[5]", "result": "-0.6 PBM z-score against 500 random probes"}]}, {"binder": "NRC3_random_hg19_46_o1 (dsDNA) DNA 1: GCAGTAATGCCAATGTCATGATGTGGTCCAGGAATGGCGATTGACAGCGTAGAATGAAGG DNA 2: CCTTCATTCTACGCTGTCAATCGCCATTCCTGGACCACATCATGACATTGGCATTACTGC", "values": [{"measurement": "binding signal", "setting": "[2]", "result": "-0.76 PBM z-score against 500 random probes"}]}, {"binder": "NRC3_random_hg19_262_o1 (dsDNA) DNA 1: GCGACTAATGCTTACCTTTAGAAAGTGCAAGTGAATGCGATTGACAGCGTAGAATGAAGG DNA 2: CCTTCATTCTACGCTGTCAATCGCATTCACTTGCACTTTCTAAAGGTAAGCATTAGTCGC", "values": [{"measurement": "binding signal", "setting": "[7]", "result": "0.19 PBM z-score against 500 random probes"}, {"measurement": "binding signal", "setting": "[2]", "result": "0.24 PBM z-score against 500 random probes"}, {"measurement": "binding signal", "setting": "[5]", "result": "0.36 PBM z-score against 500 random probes"}]}, {"binder": "NRC3_random_hg19_18_o1 (dsDNA) DNA 1: GCATACACTTCTGGAGGCCAGAGGTCTGAAATCAAGGCGATTGACAGCGTAGAATGAAGG DNA 2: CCTTCATTCTACGCTGTCAATCGCCTTGATTTCAGACCTCTGGCCTCCAGAAGTGTATGC", "values": [{"measurement": "binding signal", "setting": "[2]", "result": "-0.22 PBM z-score against 500 random probes"}, {"measurement": "binding signal", "setting": "[6]", "result": "0.42 PBM z-score against 500 random probes"}]}, {"binder": "NRC3_random_hg19_182_o1 (dsDNA) DNA 1: GCGCAGGAGACTCACTTGTGCATGCAGGGTTGAGGCGCGATTGACAGCGTAGAATGAAGG DNA 2: CCTTCATTCTACGCTGTCAATCGCGCCTCAACCCTGCATGCACAAGTGAGTCTCCTGCGC", "values": [{"measurement": "binding signal", "setting": "[2]", "result": "-1.08 PBM z-score against 500 random probes"}]}]}
